Laboratory results as given in patent publication US20240392271.

System: dXR (PTBP1 experiment; KRAB not stated in the excerpt) (synthetic construct)
Assay: cell_activity
Details: mouse astrocytes, day 11

| Sequence | activity (PTBP1/total protein relative to NT) | activity (PTBP1/total protein relative to NT) (no clear repression) |
| --- | --- | --- |
| ACAGCAUCGUCCCAGACAUA / ACAGCATCGTCCCAGACATA / TATGTCTGGGACGATGCTGT [gRNA spacer 28.16 ; PTBP1 target 28.16] | 0.464 | – |
| CAGCGGGGAUCCGACGAGCU / CAGCGGGGATCCGACGAGCT / AGCTCGTCGGATCCCCGCTG [gRNA spacer 28.10 ; PTBP1 target 28.10] | – | 0.945 |
